Experimental data from the supplement of paper PMC10724198.
± gives the standard deviation of the averaged measurements.

test system: Saccharomyces cerevisiae; assay: protein stability index of tFT-peptide fusion (C-terminal peptide) (PSI (0-1 scale)); higher = more stable (slower turnover); details: genetic background: wild type; temperature: 30 C
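Note: PSI is a weighted mean of sequencing reads over stability bins, variants kept only with over 10 reads, mCherry proximal and sfGFP distal, peptide attached via GGGS linker.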

Question: How did the protein stability index turn out when LIVWAGACGVSR was run?
Answer: 0.611 ± 0.014

Question: Which protein stability index does the source give for AGGLHRSRPCVD here?
Answer: 0.709 ± 0.024

Question: Which protein stability index does the source give for TSLKGHFGIRLW here?
Answer: 0.6763 ± 0.0021

Question: PGVFEITPVMLI was tested. Which protein stability index did it give?
Answer: 0.6949 ± 0.0055

Question: How did the protein stability index turn out when PSLPPPRRPLSP was run?
Answer: 0.671 ± 0.017

Question: With VRCGGPGRAGKG as the sequence, how does the protein stability index read?
Answer: 0.63 ± 0.052

Question: Which protein stability index does the source give for SSSPPPPPPSPS here?
Answer: 0.75 ± 0.12

Question: For DSFLFVPREVAD, which protein stability index is on record?
Answer: 0.687 ± 0.013

Question: SGGGSSSGKGIR was tested. Which protein stability index did it give?
Answer: 0.715 ± 0.091

Question: GLGLVSWEAGGG was tested. Which protein stability index did it give?
Answer: 0.702 ± 0.017

Question: EKYGKKIRRKNR was tested. Which protein stability index did it give?
Answer: 0.766 ± 0.11

Question: How did the protein stability index turn out when PPTPPSLPPLSP was run?
Answer: 0.665 ± 0.086

Question: Which protein stability index does the source give for LHHPPSTHRGPD here?
Answer: 0.711 ± 0.004

Question: For PTIRKDPLGFLR, which protein stability index is on record?
Answer: 0.707 ± 0.0084

Question: ADSVVAGKGASV was tested. Which protein stability index did it give?
Answer: 0.686 ± 0.031

Question: VWCAFNLLFARQ was tested. Which protein stability index did it give?
Answer: 0.574 ± 0.032

Question: With GAVSVVFGWTDV as the sequence, how does the protein stability index read?
Answer: 0.672 ± 0.021

Question: With RTSRKKMLNFKY as the sequence, how does the protein stability index read?
Answer: 0.66688 ± 0.00034

Question: GGSGGGRRGVGR was tested. Which protein stability index did it give?
Answer: 0.656 ± 0.0095

Question: For FLVEPSGRSATW, which protein stability index is on record?
Answer: 0.741 ± 0.16

Question: With PHAMNPNTSRVL as the sequence, how does the protein stability index read?
Answer: 0.682 ± 0.008

Question: With PLPPPPPPPPLP as the sequence, how does the protein stability index read?
Answer: 0.767 ± 0.024

Question: With PPPRLPTSPDSP as the sequence, how does the protein stability index read?
Answer: 0.722 ± 0.061

Question: For GFATCSFPVCRV, which protein stability index is on record?
Answer: 0.661 ± 0.027

Question: Which protein stability index does the source give for SMSRSPPPSPPL here?
Answer: 0.669 ± 0.01

Question: For PPPLPPPPPPSP, which protein stability index is on record?
Answer: 0.782 ± 0.083

Question: With IFKSLEKKTKRV as the sequence, how does the protein stability index read?
Answer: 0.766 ± 0.0086

Question: With PPALLRLTSSAR as the sequence, how does the protein stability index read?
Answer: 0.702 ± 0.026

Question: HPPPSLAASPPP was tested. Which protein stability index did it give?
Answer: 0.544 ± 0.017

Question: For VDFVGFGGVEGG, which protein stability index is on record?
Answer: 0.75 ± 0.059

Question: With WCGTLVDRGCSL as the sequence, how does the protein stability index read?
Answer: 0.554 ± 0.026

Question: For NKSPWYYILQPM, which protein stability index is on record?
Answer: 0.738 ± 0.082

Question: YKGKFTILESLK was tested. Which protein stability index did it give?
Answer: 0.665 ± 0.027

Question: With AVFWLRFSRISV as the sequence, how does the protein stability index read?
Answer: 0.618 ± 0.0094

Question: With IGVRSPSTHIVN as the sequence, how does the protein stability index read?
Answer: 0.72 ± 0.018

Question: LPPSQLPPPHLT was tested. Which protein stability index did it give?
Answer: 0.662 ± 0.019

Question: With REPFCVVGGREG as the sequence, how does the protein stability index read?
Answer: 0.681 ± 0.04

Question: SECFARSSSPRA was tested. Which protein stability index did it give?
Answer: 0.7129 ± 0.0041

Question: Which protein stability index does the source give for PTLSPRSPRFAS here?
Answer: 0.755 ± 0.035

Question: For PCPGSPPCHFYF, which protein stability index is on record?
Answer: 0.691 ± 0.018

Question: With PLAPPTSASRFS as the sequence, how does the protein stability index read?
Answer: 0.6466 ± 0.0027

Question: How did the protein stability index turn out when LTRSIKVWRAMR was run?
Answer: 0.686 ± 0.018

Question: How did the protein stability index turn out when TPPSPLPPSPPR was run?
Answer: 0.728 ± 0.058

Question: GILNIRKALDGK was tested. Which protein stability index did it give?
Answer: 0.6477 ± 0.0026

Question: AGAWGREVVGWG was tested. Which protein stability index did it give?
Answer: 0.708 ± 0.033

Question: PTGQSSVESGAG was tested. Which protein stability index did it give?
Answer: 0.693 ± 0.088

Question: PCSGSFFLEFRV was tested. Which protein stability index did it give?
Answer: 0.707 ± 0.021

Question: With STRRTSKCHQGI as the sequence, how does the protein stability index read?
Answer: 0.711 ± 0.019

Question: How did the protein stability index turn out when TKTIKPNKKATV was run?
Answer: 0.655 ± 0.03

Question: How did the protein stability index turn out when GLSVVFRIPPGS was run?
Answer: 0.735 ± 0.043

Question: For LPPSTSPPIRPP, which protein stability index is on record?
Answer: 0.663 ± 0.043

Question: RGCGAIYRGSCG was tested. Which protein stability index did it give?
Answer: 0.707 ± 0.021

Question: With KSSNIDINCNQN as the sequence, how does the protein stability index read?
Answer: 0.691 ± 0.053

Question: HCFWVVTGGSWF was tested. Which protein stability index did it give?
Answer: 0.691 ± 0.06

Question: For VCGLGGCGGLGV, which protein stability index is on record?
Answer: 0.731 ± 0.039

Question: FRGPRSFRGVVW was tested. Which protein stability index did it give?
Answer: 0.757 ± 0.08

Question: With PPLRFLSVSSSP as the sequence, how does the protein stability index read?
Answer: 0.6741 ± 0.003

Question: Which protein stability index does the source give for LGFGCVYCGEAW here?
Answer: 0.689 ± 0.033

Question: Which protein stability index does the source give for KVNKKKVITKQE here?
Answer: 0.713 ± 0.027

Question: How did the protein stability index turn out when WKETGRGTISHK was run?
Answer: 0.699 ± 0.013

Question: VPASVRRSAPVP was tested. Which protein stability index did it give?
Answer: 0.664 ± 0.044

Question: With STPVKLPTSSLP as the sequence, how does the protein stability index read?
Answer: 0.663 ± 0.051

Question: Which protein stability index does the source give for PPPYHPDATFTT here?
Answer: 0.7063 ± 0.0025

Question: For LAPPPPAPPMSP, which protein stability index is on record?
Answer: 0.717 ± 0.013

Question: How did the protein stability index turn out when RNRNDRIKKLKR was run?
Answer: 0.667 ± 0.014

Question: How did the protein stability index turn out when RLCFAPRVLPTH was run?
Answer: 0.604 ± 0.041

Question: How did the protein stability index turn out when VWGRQGGGVGRA was run?
Answer: 0.715 ± 0.088

Question: Which protein stability index does the source give for KEHTKKQERTPK here?
Answer: 0.596 ± 0.051

Question: Which protein stability index does the source give for SPPLPACSPPLA here?
Answer: 0.715 ± 0.035

Question: VRSDHSGLEILG was tested. Which protein stability index did it give?
Answer: 0.782 ± 0.11

Question: SVAWPRLLSISP was tested. Which protein stability index did it give?
Answer: 0.612 ± 0.0089

Question: With PPPSSPSPPRCR as the sequence, how does the protein stability index read?
Answer: 0.733 ± 0.1

Question: For PLSPPLLPPPPP, which protein stability index is on record?
Answer: 0.688 ± 0.014

Question: With DGAVRLGVGGLG as the sequence, how does the protein stability index read?
Answer: 0.682 ± 0.041

Question: Which protein stability index does the source give for STVHLPAPAWGS here?
Answer: 0.707 ± 0.033

Question: How did the protein stability index turn out when FTSPNGVRVCFH was run?
Answer: 0.843 ± 0.02

Question: GLAFVGWGPRFR was tested. Which protein stability index did it give?
Answer: 0.71 ± 0.028

Question: Which protein stability index does the source give for VRLLAESWEGGR here?
Answer: 0.702 ± 0.017

Question: For VVDGWVAAWGVW, which protein stability index is on record?
Answer: 0.694 ± 0.003

Question: With SLGVVSHGASRP as the sequence, how does the protein stability index read?
Answer: 0.693 ± 0.027

Question: For FIGWFSLMSCSV, which protein stability index is on record?
Answer: 0.604 ± 0.026

Question: EEVAISFFFLSL was tested. Which protein stability index did it give?
Answer: 0.468 ± 0.055

Question: Which protein stability index does the source give for LSSCLFDPIFLF here?
Answer: 0.783 ± 0.018

Question: Which protein stability index does the source give for PSPAALLPPPPP here?
Answer: 0.643 ± 0.014

Question: Which protein stability index does the source give for LFGIGFFSFICS here?
Answer: 0.537 ± 0.074

Question: Which protein stability index does the source give for KAIKNKQKFKEK here?
Answer: 0.726 ± 0.012

Question: How did the protein stability index turn out when GFRVRCSICGSA was run?
Answer: 0.681 ± 0.073

Question: For PGDPRARPRLCP, which protein stability index is on record?
Answer: 0.71 ± 0.033

Question: How did the protein stability index turn out when ALLTWIFTCIHI was run?
Answer: 0.571 ± 0.039

Question: How did the protein stability index turn out when LSFFGPPFPISF was run?
Answer: 0.74 ± 0.043

Question: Which protein stability index does the source give for LGSGSTQGWAGG here?
Answer: 0.667 ± 0.035

Question: LLLLIPCYSPPP was tested. Which protein stability index did it give?
Answer: 0.659 ± 0.071

Question: RERRFFPPSGFS was tested. Which protein stability index did it give?
Answer: 0.71 ± 0.018

Question: TSPLPTLLNDPP was tested. Which protein stability index did it give?
Answer: 0.523 ± 0.0081

Question: With RIIHIHKLFLRR as the sequence, how does the protein stability index read?
Answer: 0.677 ± 0.071

Question: Which protein stability index does the source give for WPCGGLRFSLPY here?
Answer: 0.674 ± 0.029

Question: For WSVHGLGSVSIY, which protein stability index is on record?
Answer: 0.707 ± 0.014

Question: LTPGFSRIDRAP was tested. Which protein stability index did it give?
Answer: 0.718 ± 0.062

Question: How did the protein stability index turn out when PPSPPPPLSLSP was run?
Answer: 0.6853 ± 0.0033

Question: With SAPCSFCPPPPG as the sequence, how does the protein stability index read?
Answer: 0.667 ± 0.026

Question: GGVCVGSFLFDR was tested. Which protein stability index did it give?
Answer: 0.702 ± 0.029
